Source: the RNAGym collection of RNA variant scans (doi:10.1073/pnas.2313332121)

B1: TPR t1 (parent)
chain: GACCAAUCUGCCCUCAGAGCUCGAGAACAUCUUCGGAUGCAGAGGAGGCAGGCUUCGGUGGCGCGAUAGCGCCAACGUCCUCAACCUCCAAUGCAUCCCACCACAUGAUGAUGCCUGAAGAGCCUUGGUUUUUUG

Variants of: B1
Experiment: polymerase ribozyme fitness, log enrichment relative to wild type (log ratio); higher = more active; in vitro selection for triplet polymerase activity
In short: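 The heterodimeric triplet polymerase ribozyme's subunits were each mutagenized into PCR-built libraries and transcribed. Every library was selected once, in triplicate, by annealing with a biotinylated primer, the partner subunit and triplets, incubating frozen at −7 °C, gel-excising extended constructs, capturing on streptavidin beads and running RT-PCR. Input and output libraries were Illumina-sequenced, with genotypes kept only at ≥10 input reads and ≥1 read per output. Fitness, from inverse-variance-weighted replicate averages, is the base-2 logarithm of genotype enrichment over wild-type enrichment.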

Variant | polymerase ribozyme fitness (log ratio)
C11A C80G C88U | -6.42
G45U C49U G61A C115G | -2.62
C4A G48A G57A C85U C101A | -4.21
C12U C31U | -4.34
A50U G65A U78G G120A U126A U129G U130A | -7.26
G42C A66G C89G | -4.07
A121U | 2.12
C94G C124G | 1.09
G47A G61C U81C C86A U129C | -4.11
C88A A121U | 0.835
U33G U87G | -5.18
G42A G45C C49G U96A | -3.8
G45A U54A C56U G57U U87G A91G G93A | -3.65
C89A G122A U125G | -4.57
A16U C89G C123G | -1.67
U81A G110U | -2.6
G36A U125G | -1.83
G42U C53G C56A | -1.17
U7C C8G G45A C53U G63A U87A | -1.06
C11G C40U C49U U55G U130A U132A | -1.35
G35U U59A | -6.05

Variant | polymerase ribozyme fitness (log ratio)
U9G | 0.36
C70G U81A | -5.64
C13U G60C G93A G110A U130A | -3.35
C11G C15A A29U G45C G77A G120A G128U | -5.34
C13A A16U C72U G93A | -3.35
C8A C80U C88U U133A | -0.694
C8G C13G A16U C49A U129C | -0.993
C15A G39A G61A C123U | -0.349
A18C C64U | -2.61
C3G A37U C49U A100U G113A U129A | -4.75
U30C G58C C85G | -3.06
U32C G39U C56U G58C | -0.298
G51C U78C A121C G122U C124A | -4.73
A18U C28U | -5.29
C49A C124U U132C | 1.03
U87A G128U | -2.2
C15A C76A | -2.53
C73U C79A A95G | -0.961
A26U A43U G45U G63C C89U G120A | -6.22
A27U C64U U78C | -3.83
G36A C72A C97U A121G | 1.78

Variant | polymerase ribozyme fitness (log ratio)
C11G G25A | -4.53
G52U C72A C104U A111G G113A | -2.25
A5C A91U | -2.68
U55G A90C U92G C101A | -3.67
G61C G113A | -2.26
G39U C70G G122A | -3.94
U7G C11U G69C C88A | -1.91
U9A C31G G60A C89G A111C G127A | -7
A26U U126G | -4.96
C3G G61A A90G C99U | -3.39
A50U U59A | -0.619
C15G U32C G36C C49G U59C G120C | -4.02
C34U G35U | -4.9
U54G G71U A75C C98U U125C | -4.29
C11U G58A G69U | -0.296
A27U G47A C49U U96A A119U | -5.56
A6U A105C | -1.94
G110C A111G | -5.74
C13A G36C C64U C80U U112G G117A | -6.43
G52U C53U | -1.04
U7A U9C U78A G110U | -1.82

Variant | polymerase ribozyme fitness (log ratio)
C8G C62U C115U | -0.929
G57A C73U G110A | -2.06
U14A C49U G60C A103C U112A C123G | -6.39
A5G C114A | -1.2
C13A A26G C53U C104U | -5.09
C8G U33G C99A C101A | -5.4
G57U G69A | -2.73
A24G A37G G47A G120C | -1.98
G17A G48C C49G A84U C124U | -2.52
G63A A111U G122A | -6.48
G48C A95G U106A | -0.768
C8A G117A A121U | 1.21
A43C G63C C102A A121U C123U | -5.76
C49A C70A C97A G120U U130G | -6.14
U59G A68G | -3.01
C101A U112A | 0.611
A83G U116A | -3.6
A37G G69U C89G | -2.64
A6C C72U A91G A121U G128C | -0.723
C62U G113C | -2.79
